Experimental data reported in article PMC3075949.

Assays:
[1] = molecular target: Rh gH/gL-YFPC (rhesus lymphocryptovirus (Rh-LCV)); assay: split reporter
[2] = molecular target: EBV gH/gL-YFPC (Epstein-Barr virus (EBV)) (UniProt P03231); assay: split reporter

Substance	% YFP cells of cells stained for gB and gH/gL [1]	% YFP cells of cells stained for gB and gH/gL [2]
EBV/Rh (456-807) gB-YFPN (from UniProt P03188 22-450; P03188 801-857)	79%	–
EBV/Rh (456-628) gB-YFPN (from UniProt P03188 22-450; P03188 624-857)	72%	93%
EBV/Rh (628-807) gB-YFPN (from UniProt P03188 22-622; P03188 801-857)	59%	–
EBV gB-YFPN (from UniProt P03188 22-857) (natural protein)	68%	–
